From article PMC3334378 come the findings set out here.

In this assay the target is fibronectin (UniProt P02751).
Sequence of UniProt P02751 (P02751 32-2477): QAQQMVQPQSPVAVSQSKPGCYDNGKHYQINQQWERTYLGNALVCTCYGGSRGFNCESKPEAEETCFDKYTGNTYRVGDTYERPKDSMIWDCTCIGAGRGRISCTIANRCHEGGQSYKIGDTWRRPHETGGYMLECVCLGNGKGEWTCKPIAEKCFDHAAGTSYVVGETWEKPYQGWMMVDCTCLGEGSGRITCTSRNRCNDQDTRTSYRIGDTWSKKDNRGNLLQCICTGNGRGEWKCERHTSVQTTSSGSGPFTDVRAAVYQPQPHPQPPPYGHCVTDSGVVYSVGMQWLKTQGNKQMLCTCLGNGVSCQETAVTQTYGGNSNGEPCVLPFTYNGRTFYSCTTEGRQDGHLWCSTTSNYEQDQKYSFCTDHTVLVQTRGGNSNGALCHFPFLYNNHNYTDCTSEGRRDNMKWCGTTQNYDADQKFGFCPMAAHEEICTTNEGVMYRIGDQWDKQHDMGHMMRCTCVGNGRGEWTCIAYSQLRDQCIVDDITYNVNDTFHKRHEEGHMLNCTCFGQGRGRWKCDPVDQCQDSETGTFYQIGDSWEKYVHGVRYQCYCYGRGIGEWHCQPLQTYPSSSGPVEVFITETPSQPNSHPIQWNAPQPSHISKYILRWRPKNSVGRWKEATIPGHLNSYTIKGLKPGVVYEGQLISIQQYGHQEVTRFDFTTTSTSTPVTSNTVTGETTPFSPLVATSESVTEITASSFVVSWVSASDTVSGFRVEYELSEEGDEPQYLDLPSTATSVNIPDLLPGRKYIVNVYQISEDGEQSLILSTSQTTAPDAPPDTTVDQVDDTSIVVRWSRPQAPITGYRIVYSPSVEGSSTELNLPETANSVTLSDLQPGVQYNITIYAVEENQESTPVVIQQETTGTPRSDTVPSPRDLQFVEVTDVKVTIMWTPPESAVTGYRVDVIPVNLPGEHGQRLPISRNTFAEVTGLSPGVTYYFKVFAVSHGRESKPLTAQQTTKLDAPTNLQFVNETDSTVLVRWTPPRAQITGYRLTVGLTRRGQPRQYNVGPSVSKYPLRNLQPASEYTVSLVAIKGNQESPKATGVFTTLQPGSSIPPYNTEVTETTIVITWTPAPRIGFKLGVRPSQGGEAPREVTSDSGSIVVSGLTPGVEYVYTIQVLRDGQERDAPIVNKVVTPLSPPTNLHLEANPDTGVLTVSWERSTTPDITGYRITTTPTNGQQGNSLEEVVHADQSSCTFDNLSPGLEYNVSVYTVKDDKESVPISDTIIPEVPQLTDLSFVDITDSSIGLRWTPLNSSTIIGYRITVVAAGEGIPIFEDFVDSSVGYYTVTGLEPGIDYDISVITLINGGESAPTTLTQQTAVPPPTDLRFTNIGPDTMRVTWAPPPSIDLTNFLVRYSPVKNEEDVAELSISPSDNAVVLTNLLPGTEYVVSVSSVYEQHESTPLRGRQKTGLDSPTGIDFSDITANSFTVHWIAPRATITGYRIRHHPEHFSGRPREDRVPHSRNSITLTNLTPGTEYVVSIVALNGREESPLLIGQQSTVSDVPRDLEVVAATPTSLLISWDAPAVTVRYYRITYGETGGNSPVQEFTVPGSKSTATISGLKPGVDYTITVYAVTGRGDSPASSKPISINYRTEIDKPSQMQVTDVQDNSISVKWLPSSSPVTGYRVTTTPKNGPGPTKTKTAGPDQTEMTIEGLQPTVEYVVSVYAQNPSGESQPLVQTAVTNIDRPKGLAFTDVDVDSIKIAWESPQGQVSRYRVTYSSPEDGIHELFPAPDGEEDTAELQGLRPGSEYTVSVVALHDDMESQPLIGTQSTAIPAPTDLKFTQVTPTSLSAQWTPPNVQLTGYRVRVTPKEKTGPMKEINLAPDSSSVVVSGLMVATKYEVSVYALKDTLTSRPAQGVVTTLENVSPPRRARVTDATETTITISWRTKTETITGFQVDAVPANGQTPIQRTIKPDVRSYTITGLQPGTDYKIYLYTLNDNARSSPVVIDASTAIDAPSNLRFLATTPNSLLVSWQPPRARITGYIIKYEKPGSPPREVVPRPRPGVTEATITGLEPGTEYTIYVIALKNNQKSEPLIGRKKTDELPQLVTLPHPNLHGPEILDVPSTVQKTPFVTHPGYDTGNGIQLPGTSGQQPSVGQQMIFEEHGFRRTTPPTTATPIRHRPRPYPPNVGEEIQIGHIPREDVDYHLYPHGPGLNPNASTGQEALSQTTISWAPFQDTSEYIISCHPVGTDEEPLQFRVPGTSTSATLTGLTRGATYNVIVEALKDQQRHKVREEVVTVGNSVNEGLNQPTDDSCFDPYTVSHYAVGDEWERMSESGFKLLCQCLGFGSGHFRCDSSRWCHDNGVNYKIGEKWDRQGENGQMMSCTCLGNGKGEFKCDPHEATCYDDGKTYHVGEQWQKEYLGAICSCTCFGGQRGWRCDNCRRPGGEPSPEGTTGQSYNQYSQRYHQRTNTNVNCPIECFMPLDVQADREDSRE

Sequence of β1-integrin (P49134 21-799): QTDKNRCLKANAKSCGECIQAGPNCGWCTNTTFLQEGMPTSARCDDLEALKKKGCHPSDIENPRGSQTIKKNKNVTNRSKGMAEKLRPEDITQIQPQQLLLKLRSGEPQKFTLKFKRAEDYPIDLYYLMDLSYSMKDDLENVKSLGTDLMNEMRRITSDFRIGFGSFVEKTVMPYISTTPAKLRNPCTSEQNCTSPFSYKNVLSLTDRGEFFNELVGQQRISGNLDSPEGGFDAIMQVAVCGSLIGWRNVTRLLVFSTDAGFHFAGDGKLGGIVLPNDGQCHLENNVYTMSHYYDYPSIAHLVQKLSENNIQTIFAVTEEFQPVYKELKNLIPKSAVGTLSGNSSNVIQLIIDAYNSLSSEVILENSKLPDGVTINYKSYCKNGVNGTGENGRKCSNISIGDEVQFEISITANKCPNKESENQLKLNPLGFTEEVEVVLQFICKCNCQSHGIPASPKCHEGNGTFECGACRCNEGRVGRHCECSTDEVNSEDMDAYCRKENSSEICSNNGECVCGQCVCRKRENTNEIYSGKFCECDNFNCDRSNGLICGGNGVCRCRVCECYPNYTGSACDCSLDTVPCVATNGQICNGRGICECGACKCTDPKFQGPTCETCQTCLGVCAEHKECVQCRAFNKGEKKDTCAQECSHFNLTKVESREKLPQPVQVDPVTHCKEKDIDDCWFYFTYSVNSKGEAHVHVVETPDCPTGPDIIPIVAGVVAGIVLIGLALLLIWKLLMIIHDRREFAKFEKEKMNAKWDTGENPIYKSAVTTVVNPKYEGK

As for “β1-integrin (from UniProt P49134 21-799) (receptor)”, the inhibition of adhesion of 3Y1 cells to fibronectin-coated plates (60 min, 37°C) by β1-integrin blocking antibody (hamster anti-rat CD29, 50 µg/mL) amounted to 51% and the inhibition of adhesion of HR-3Y1-2 cells to fibronectin-coated plates (60 min, 37°C) by β1-integrin blocking antibody (hamster anti-rat CD29, 50 µg/mL) stood at 57%.
